Assay results published in patent publication US20260250331A1 (INTERNATIONAL AIDS VACCINE INITIATIVE, published 2026).
Residue numbers refer to the chain shown, from its start.

Key:
[1] = molecular target: BG505 MD39 trimer (HIV-1 BG505); assay: ELISA on BG505-MD39, BG18 as mAb titrated from about 0.001 to 50 µg/mL
[2] = molecular target: BG505 MD39 N332-GT2 trimer (HIV-1 BG505); assay: SPR, Fab and N332-GT2 trimer
[3] = molecular target: N332-GT2 NP (ferritin) (HIV-1 BG505 Env fused to Helicobacter …); assay: SPR; NP captured as ligand with PGT128 IgG, Fab flowed as analyte
[4] = molecular target: BG505 MD39 N332-GT2 trimer (HIV-1 BG505); assay: SPR
[5] = molecular target: BG505 MD39 N332-GT2 trimer (HIV-1 BG505); assay: SPR; reference 11mutB trimer
[6] = molecular target: gp120-17mutE K137/R139/M141/P325; assay: SPR
[7] = molecular target: gp120-17mutE K137/M141/P325; assay: SPR
[8] = molecular target: gp120-17mutE K137/H325; assay: SPR
[9] = molecular target: gp120-17mutE K137/P325; assay: SPR
[10] = molecular target: gp120-17mutE; assay: SPR
[11] = molecular target: BG505 MD39 N332-GT2 trimer (HIV-1 BG505); assay: SPR; KD scatter plot
[12] = molecular target: BG505 MD39 trimer (HIV-1 BG505); assay: ELISA on BG505-MD39, mAb titrated from about 0.001 to 50 µg/mL

B1: BG18 Fab (Fab, V domains shown)
VH: QVQLRESGPGLVKPSETLSLSCTVSNDSRPSDHSWTWVRQSPGKALEWIGDIHYNGATTYNPSLRSRVRIELDQSIPRFSLKMTSMTAADTGMYYCARNAIRIYGVVALGEWFHYGMDVWGQGTAVTVSS
VL: SSELTQPPSVSVSPGQTARITCSGAPLTSRFTYWYRQKPGQAPVLIISRSSQRSSGWSGRFSASWSGTTVTLTIRGVQADDEADYYCQSSDTSDSYKMFGGGTKLTVL
notes: also called mature BG18; 354BG18
B1 was tested, and the “EC50 (read off the curve)” value [1] was roughly 0.02 µg/mL.

B2: BG18 iGL0 Fab (Fab, V domains shown)
VH: QVQLQESGPGLVKPSGTLSLTCAVSGGSISSSNWWSWVRQPPGKGLEWIGEIYHSGSTNYNPSLKSRVTISVDKSKNQFSLKLSSVTAADTAVYYCARNAITIFGVVIIGEYYYYGMDVWGQGTTVTVSS
VL: not shown
For B2, the Kd [2] was 4 nM and the Kd [3] was 3 nM.

B3: BG18 iGL1 with alternate germline VL gene VL3-1 (antibody, V domains shown)
VH: B2 VH with I109L
VL: not shown
B3: binds [4].

B4: BG18 iGL1 with alternate germline VL gene VL3-19 (antibody, V domains shown)
VH: B2 VH with I109L
VL: SSELTQDPAVSVALGQTVRITCQGDSLRSYYASWYQQKPGQAPVLVIYGKNNRPSGIPDRFSGSSSGNTASLTITGAQAEDEADYYCNSRDSSGNHWVFGGGTKLTVL
B4: binds [4].

B5: BG18 iGL1 (antibody, V domains shown)
VH: B2 VH with I109L
VL: not shown
For B5, the “fold improvement over 11mutB” value [5] was roughly 130000 fold, the Kd [4] was 0.213 nM and the Kd [6] was 0.5 nM. It also gave a Kd [7] of 2.5 nM, a Kd [8] of 5.9 nM and a Kd [9] of 11 nM. For the same binder, the Kd [10] was roughly 14000 nM.

B6: BG18 iGL1 with alternate germline VL gene VL2-8 (antibody, V domains shown)
VH: B2 VH with I109L
VL: QSALTQPPSASGSPGQSVTISCTGTSSDVGGYNYVSWYQQHPGKAPKLMIYEVSKRPSGVPDRFSGSKSGNTASLTVSGLQAEDEADYYCSSYAGSNNFWVFGGGTKLTVL
B6: binds [4].

B7: pre13 (antibody, V domains shown)
VH: B2 VH with R98K, N99A, A100L, I101N, I108T, I109L, G110T, E111Q
VL: not shown
B7: no binding (tested: 100 µM) [11].

B8: BG18 iGL1 with alternate germline VL gene VL3-10 (antibody, V domains shown)
VH: B2 VH with I109L
VL: SYELTQPPSVSVSPGQTARITCSGDALPKKYAYWYQQKSGQAPVLVIYKDSKRPSGIPERFSGSSSGTMATLTISGAQVEDEDDYYCYSADYSGNHWVFGGGTKLTVL
B8: binds [4].

B9: pre4 (antibody, V domains shown)
VH: B2 VH with N99E, A100R, I101D, I108S, I109L, G110R, E111V
VL: not shown
B9: no binding (tested: 100 µM) [11].

B10: pre14 (antibody, V domains shown)
VH: B2 VH with N99G, A100R, I108T, I109L, G110R, E111G
VL: not shown
notes: also called NGS pre14; NGS Pre14
For B10, the Kd [2] was 136 nM and the Kd [3] was 94 nM.

B11: pre15 (antibody, V domains shown)
VH: B2 VH with N99D, A100I, I101H, T102N, I103S, I108S, I109L, G110D, E111Q, Y112N
VL: not shown
B11: no binding (tested: 100 µM) [11].

B12: BG18.6H BG18.11L (antibody, V domains shown)
VH: QVQLQESGPGLVKPSGTLSLTCAVSGDSRPSDHSWSWVRQPPGKGLEWIGEIYYSGSTNYNPSLKSRVTISVDKSKNQFSLKLSSVTAADTAVYYCARNAIRIYGVVALGEWFHYGMDVWGQGTTVTVSS
VL: SYELTQPPSVSVSPGQTARITCSGDALPSRYAYWYQQKPGQAPVLVISRDSQRSSGISGRFSGSWSGTTVTLTISGVQAEDEADYYCQSSDSSDTYKVFGGGTKLTVL
notes: also called less mutated variant of BG18
For B12, the “EC50 (read off the curve)” value [12] was roughly 0.05 µg/mL.
